# Tested on: HT29 human colon cancer cells
# Assay: Cytotoxicity (viability) test on HT29 cells, methylene blue staining
# Type: cell-based
# Details: TRAIL alone, sublethal doses 25, 50 and 100 ng/ml, 24 hours
# Protocol: FIG. 1: Graphs illustrating the synergy observed in vitro between TRAIL and P. freudenreichii metabolites. HT29 colon cancer cells were treated with sublethal doses of TRAIL (25 ng/ml, 50 ng/ml and 100 ng/ml). Various doses of SCFA (propionate/acetate SCFA, FIG. 1A) or of P. freudenreichii supernatant (FIG. 1B) were used in co-treatment. Viability of the HT29 cells was determined after 24 hours of treatment. […] More precisely, the viability illustrated in FIG. 1 was determined using the following cytotoxicity test. HT29 human colon cancer cells (ATCC, Biovalley) were cultured in 96-well plates (30,000 cells/well) for 24 hours. […] At the end of treatment (24 hours), the medium was discarded and the adherent cells were washed three times with 1× PBS (100 μl/well) and fixed in 99% ethanol (100 μl/well) for 30 minutes. After discarding the ethanol, the fixed cells were air dried and then stained for 30 minutes with methylene blue (diluted in 1× borate buffer). After three washings in water and drying (roughly 30 minutes), 100 μl of hydrochloric acid (0.1 N) was added to the wells. The plates were then analyzed by spectrophotometer at a wavelength of 620 nm (iEMS Reader MF; Lab-systems, Helsinki, Finland).
molecule,measurement,value
TRAIL: cytokine TNF-related apoptosis-inducing ligand; SuperKillerTRAIL™ (Alexis Biochemicals) used in the HT29 test (protein) TSEETISTVQEKQQNISPLVRERGPQRVAAHITGTRGRSNTLSSPNSKNEKALGRKINSWESSRSGHSFLSNLHLRNGELVIHEKGFYYIYSQTYFRFQEEIKENTKNDKQMVQYIYKYTSYPDPILLMKSARNSCWSKDAEYGLYSIYQGGIFELKENDRIFVSVTNEHLIDMDHEASFFGAFLVG,cell death (viability of HT29 cells),do not significantly induce cell death
